# Read-outs that look alike come from different tables or passages of the source.
# T1: human chemokine receptor CCR6 (human, UniProt P51684 1-374)
# T1 construct: whole, on cells; gene was synthesized (codon-optimized); a C-terminal tag may be present on the expressed protein; also called CCR6 human; human CCR6
# T1 sequence (looked up): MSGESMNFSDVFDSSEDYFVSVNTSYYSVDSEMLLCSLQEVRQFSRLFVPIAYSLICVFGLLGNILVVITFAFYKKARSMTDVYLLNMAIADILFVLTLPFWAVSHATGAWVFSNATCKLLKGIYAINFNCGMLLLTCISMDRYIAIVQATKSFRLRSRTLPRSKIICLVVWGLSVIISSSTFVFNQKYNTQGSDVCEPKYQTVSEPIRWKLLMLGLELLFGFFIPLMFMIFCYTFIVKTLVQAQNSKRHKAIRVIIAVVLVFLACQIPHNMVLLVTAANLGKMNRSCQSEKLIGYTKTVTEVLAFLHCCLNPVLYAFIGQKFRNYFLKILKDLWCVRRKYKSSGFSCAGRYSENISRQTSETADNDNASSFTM
# T2: mouse CCR6 (mouse, UniProt O54689 1-367)
# T2 construct: whole, on cells; gene derived from a cDNA library; also called CCR6 mouse
# T2 sequence (looked up): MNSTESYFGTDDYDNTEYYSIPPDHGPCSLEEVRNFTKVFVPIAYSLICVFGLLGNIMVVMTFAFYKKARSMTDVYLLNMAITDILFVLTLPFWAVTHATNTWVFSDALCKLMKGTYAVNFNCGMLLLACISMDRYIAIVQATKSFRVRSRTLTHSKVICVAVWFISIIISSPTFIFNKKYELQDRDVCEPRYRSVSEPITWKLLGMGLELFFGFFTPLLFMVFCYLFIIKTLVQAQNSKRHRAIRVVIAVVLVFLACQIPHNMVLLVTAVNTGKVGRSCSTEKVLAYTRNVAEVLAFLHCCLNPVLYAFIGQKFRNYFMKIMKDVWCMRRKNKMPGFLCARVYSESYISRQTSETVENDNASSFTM
# T3: mouse CCR7 (mouse, UniProt P47774 25-378)
# T3 construct: whole, on cells; also called CCR7ms
# T3 sequence (looked up): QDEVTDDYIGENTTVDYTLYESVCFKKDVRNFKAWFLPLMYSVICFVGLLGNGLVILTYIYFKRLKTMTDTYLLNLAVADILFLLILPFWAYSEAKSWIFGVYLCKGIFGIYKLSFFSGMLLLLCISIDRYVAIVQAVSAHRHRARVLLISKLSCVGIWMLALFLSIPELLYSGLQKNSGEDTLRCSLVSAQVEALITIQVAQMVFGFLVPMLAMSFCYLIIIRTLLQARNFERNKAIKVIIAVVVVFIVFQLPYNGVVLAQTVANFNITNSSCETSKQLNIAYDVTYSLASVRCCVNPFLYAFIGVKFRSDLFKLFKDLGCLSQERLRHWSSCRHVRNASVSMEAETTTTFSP
# T4: human CXCR2 (human, UniProt P25025 1-360)
# T4 construct: whole, on cells
# T4 sequence (looked up): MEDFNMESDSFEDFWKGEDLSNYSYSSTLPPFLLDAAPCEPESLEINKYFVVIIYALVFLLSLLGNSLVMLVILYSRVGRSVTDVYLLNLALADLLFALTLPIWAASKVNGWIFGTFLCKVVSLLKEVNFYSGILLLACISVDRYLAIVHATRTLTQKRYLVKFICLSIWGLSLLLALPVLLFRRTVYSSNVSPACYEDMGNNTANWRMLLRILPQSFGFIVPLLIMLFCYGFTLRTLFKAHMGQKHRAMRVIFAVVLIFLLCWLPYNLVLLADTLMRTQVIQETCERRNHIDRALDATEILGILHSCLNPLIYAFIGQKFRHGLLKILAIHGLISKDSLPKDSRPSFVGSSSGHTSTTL
# Key:
# [1] = molecular target: T1, human chemokine receptor CCR6; assay: flow cytometry on cells expressing the target, IgG1 titration (repeat of Table 2)
# mouse CCR6 [2] = molecular target: T2, mouse CCR6; assay: as above
# cynomolgus monkey CCR6 [3] = molecular target: T5, cynomolgus monkey CCR6 (cynomolgus monkey (Macaca Fascicularis)); assay: as above
# T5 construct: whole, on cells; gene derived from a total RNA library; also called CCR6 cyno; cyno CCR6
# [4] = molecular target: T1, human chemokine receptor CCR6; assay: cell-based or functional assay
# [5] = molecular target: T1, human chemokine receptor CCR6; assay: flow cytometry on cells expressing the target, IgG1 titration, anti-human Fc-PE
# mouse CCR6 [6] = molecular target: T2, mouse CCR6; assay: as above
# cynomolgus monkey CCR6 [7] = molecular target: T5, cynomolgus monkey CCR6; assay: as above
# [8] = molecular target: T1, human chemokine receptor CCR6; assay: cell-based or functional assay; remark: listed apart in the source
# mouse CCR7 = molecular target: T3, mouse CCR7; assay: flow cytometry on GPCR-expressing cell panel
# human CXCR6 = molecular target: T6, human CXCR6 (human, UniProt O00574 1-342); assay: flow cytometry on GPCR-expressing cell panel
# T6 construct: whole, on cells
# mouse CCR6 [9] = molecular target: T2, mouse CCR6; assay: flow cytometry on CHO cells expressing mouse CCR6
# Protocol: Cells have been incubated with fully human anti-human CCR6 antibodies in IgG1 format. After washing out residual unbound antibodies the cells were incubated with commercial anti-human Fc antibodies conjugated to the fluorescent dye phycoerythrin (IgG-PE). In more details, the cell staining procedure was: […] cell suspension in 10 μl FACS buffer (1×PBS, 2.0% FBS, 0.2% sodium azide) was mixed with 10 μl of 200 nM the corresponding anti-CCR6 MAB and incubated on ice for 30 min. Washing step—after the incubation 150 μl of FACS buffer was added to the cell sample, the samples were mixed gently by up-down pipetting the cell suspension. Then the samples were centrifuged at 1100 rpm for 5 minutes, and supernatants were removed. Washing step was repeated ones. Then 10 μl of anti-human PE-(Fab)2 form Jackson Immuno Research Lab. #709-116-098 diluted 40 times in FACS buffer were added to the cells and the cells were re-suspended by up-down pipetting. After 20 min. incubation on ice in dark the washing step was repeated twice. The washed cells were mixed with 100 μl of FIX buffer (0.5% Paraformaldehyde solution in PBS). Fixed samples were stored in dark on ice and analyzed by FACS on Guava PCA-96 flow cytometer.
# mouse CCR6 [10] = molecular target: T2, mouse CCR6; assay: flow cytometry on CHO cells expressing mouse CCR6; remark: listed apart in the source
# human CXCR2 = molecular target: T4, human CXCR2; assay: flow cytometry on GPCR-expressing cell panel
# [11] = molecular target: T1, human chemokine receptor CCR6; assay: flow cytometry on R1610 cells expressing human CCR6, IgG1 titration, anti-human Fc-PE
# T6 sequence (O00574 whole entry): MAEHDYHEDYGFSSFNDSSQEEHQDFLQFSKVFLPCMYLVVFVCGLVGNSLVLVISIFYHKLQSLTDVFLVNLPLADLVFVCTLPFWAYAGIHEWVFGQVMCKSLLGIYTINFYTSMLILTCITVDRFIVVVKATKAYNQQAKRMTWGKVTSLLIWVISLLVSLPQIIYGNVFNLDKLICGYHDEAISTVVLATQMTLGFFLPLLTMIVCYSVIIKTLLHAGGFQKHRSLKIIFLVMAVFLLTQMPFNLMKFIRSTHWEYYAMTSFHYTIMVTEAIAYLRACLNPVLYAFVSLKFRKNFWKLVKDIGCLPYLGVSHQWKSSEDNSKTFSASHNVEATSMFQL
Binder,EC50 [1] [nM],EC50 (mouse CCR6 [2]) [nM],EC50 (cynomolgus monkey CCR6 [3]) [nM],"Ca-Flux IC50, nM CCR6/CCL20 [4] [nM]",EC50 [5] [nM],EC50 (mouse CCR6 [6]) [nM],EC50 (cynomolgus monkey CCR6 [7]) [nM],"IC50, nM CCL20-Ca-Flux [8] [nM]",binding result (mouse CCR7),binding result (human CXCR6),binding result (mouse CCR6 [9]),binding result (mouse CCR6 [10]),binding result (human CXCR2),EC50 [11] [nM]
"MSM-R605 IgG1 (antibody, Fully human IgG1) heavy: not shown light: EIVLTQSPGTLSLSPGERATLSCRASQSVSSSYLAWYQQKPGQAPRLLIYGASSRATGIPDRFSGSGSGTDFTLTISRLEPEDFAVYYCQQSRATPLTFGQGTKVEIKRTVAAPSVFIFPPSDEQLKSGTASVVCLLNNFYPREAKVQWKVDNALQSGNSQESVTEQDSKDSTYSLSSTLTLSKADYEKHKVYACEVTHQGLSSPVTKSFNRGEC",1,1.6,1.8,1.5,1,1.6,1.8,1.5,binds,binds,,,,
"MSM-R601 IgG1 (antibody, V domains shown, Fully human IgG1 made in transiently transfected CHO cells; HC AA / LC AA entries are full chains) VH: EVQLLESGGGLVQPGGSLRLSCAASGFTFSSYAMSWVRQAPGKGLEWVSAISGSGGSTYYADSVKGRFTISRDNSKNTLYLQMNSLRAEDTAMYYCARHGYSATRQGLDYWGQGTLVTVSS VL: not shown",25,,14.5,,25,,14.5,,,,no binding,,,
"MSM-R614 IgG1 (antibody, V domains shown, Fully human IgG1) VH: EVQLLESGGGLVQPGGSLRLSCPASGFTFTRSAMSWVRQAPGKGLEWVSYINSSGGGTYYADSVKGRFTISRDNSKNTLYLQMNSLRAEDTAVYYCARARFIWGFDYWGQGTLVTVSS VL: EIVLTQSPGTLSLSPGERATLSCRASQSVSSSYLAWYQQKPGQAPRLLIYGASSRATGIPDRFSGSGSGTDFTLTISRLEPEDFAVYYCQQWYWAPVTFGQGTKVEIKR",2.5,,3,,,,3,,,,,no binding,binds,2.5

# Reference: patent publication US20150337037A1 (MSM PROTEIN TECHNOLOGIES, published 2015)
